Assay results from patent US20210079444A1, “LABEL FREE DETECTION OF PROTEASE ACTIVITY” (VIB VZW, priority 2017, published 2021).
Square brackets hold non-standard residues; d marks the D form. Ends that are not written are not given here. Bpa = N[C@@H](Cc1ccc(C(=O)c2ccccc2)cc1)C(=O)O; Phe(4-CN) = N#Cc1ccc(C[C@H](N)C(=O)O)cc1

Tests used:
trypsin [1] = molecular target: T1, trypsin (Sus scrofa, UniProt P00761); experiment: Bulk (in-solution) trypsin digestion of peptide substrate, RP-HPLC separation and MALDI-TOF mass spectrometry, SERS of separated fractions; assay type: biochemical; conditions: for change of 1003 cm^-1 phenylalanine SERS peak in cleaved fraction after trypsin cleavage: cleaved vs uncleaved fractions labelled on gold nanodome chips; for extent of substrate digestion by trypsin (RP-HPLC/MALDI-TOF): peptide 100 μg/ml, trypsin 3.3 μg/ml (1/30 w/w), 50 mM ammonium-bicarbonate pH 7.8, 37° C.
T1 construct: purchased Promega V5111
Protocol: As a first step, the activity of the protease on the substrate in solution was monitored. RP-HPLC was used to separate the substrate from the digestion products, which are subsequently labelled on a nanodome platform. From the difference spectrum, the characteristic peaks of the cleaved-off and remaining fractions are derived. FIG. 4(a2-a4) depicts the results of this experiment for trypsin and its CALNNYGGGGVRGNF (100 μg/ml) (SEQ ID NO:3) substrate. The peptide was incubated with trypsin (3.3 μg/ml) at a 1/30 (w/w) ratio in a 50 mM ammonium-bicarbonate (pH 7.8) buffer in water, and separated with RP-HPLC (FIG. 4(a2)) after 0, 30 and 90 minutes of incubation. The RP-HPLC-separated peptides and their fragments were identified using MALDI-TOF mass spectrometry. […] The dimer formation is a consequence of the oxidation of the cysteine thiol groups upon which a disulphide bond is formed between two peptides. […] Subsequently, nanodome chips were labeled with cleaved and uncleaved fractions. […] Furthermore, the peaks at 618 cm^−1, 1030 cm^−1 and 1207 cm^−1 show a partial decrease, although their signal to noise ratio is low. All these peaks correspond to those attributed to phenylalanine (Table 1). From this experiment, it is concluded that the ratio between the 1003 cm^−1 peak and the 829-860 cm^−1 peaks (I1003/I829-860) is a correct metric for IF/IY, the cleavage of the substrate by trypsin.
The activity of trypsin on the peptides with unnatural aromatic amino acids was verified using HPLC/mass spectrometry, showing complete digestion of 100 μg/ml peptide after 1 hour incubation with a 4 μg/ml Trypsin concentration. Subsequently, cleaved and uncleaved fractions were labelled on a nanodome SERS substrate.

endoproteinase Glu-C = endoproteinase Glu-C (Staphylococcus aureus, UniProt P0C1U8)
Protocol: Peptides were first dissolved to 100 μg/μl in DMF and further diluted to 100 μg/ml in either a 10% acetonitrile/water mixture for labelling or a 50 mM ammonium bicarbonate buffer (pH 7.8) for bulk digestion experiments. Prior to labelling the chips with the peptides, they were cleaved into pieces of a few mm^2 and cleaned by sonication in acetone, rinsed with isopropyl alcohol and water and dried with under a stream of nitrogen. Next, remaining organic contaminants were removed in an 02 plasma, which also renders the surface hydrophilic (120 s, PVA-TEPLA GIGAbatch 310 M, 6000 sccm O2, 600 W, 750 mTorr). Immediately afterwards, the chips were immersed in separate wells of a polypropylene 96-well plate, using 100 μl of a 100 μg/ml peptide solution in 10% acetonitrile in water. After overnight incubation, the chips were rinsed excessively with deionized water. […]
After incubation for a specific time at 37° C., 750 μl of a solution with 100 μg/ml substrate and 3.3 μg/ml trypsin or endoproteinase Glu-C in 50-100 mM ammonium bicarbonate was injected in a C-18 reversed phase high-performance liquid chromatography column (Macherey-Nagel) and eluted by a water/acetonitrile gradient (Akta Purifier, GE). The molecular weight of separated fractions was determined using matrix-assisted laser desorption/ionisation time-of-flight mass spectrometry (Bruker MALDI-TOF).

trypsin [2] = molecular target: T1, trypsin; experiment: Real-time SERS observation of trypsin activity on gold-nanodome bound peptide; assay type: biochemical
Protocol: Finally, CALNNYGGGGVRGNF (SEQ ID NO:3) labelled chips were incubated with trypsin under the Raman microscope for a real-time acquisition of SERS spectra. […] A new spectrum was acquired every 2-3 minutes with an integration time of 100 seconds. A relative decrease of I1003 versus the peaks at 829, 860, 948, 1248, 1330, 1603 and 1677 cm^−1 is visible within the first minutes after adding 0.2 μg/ml trypsin (8.6 nM) to a total volume of 1 ml (8.6 pmol), in agreement with Table 1 and the earlier experiments described in this work. SERS spectra after 2 minutes and 30 minutes of trypsin incubation show a further reduction of I1003 and I1206 with increasing incubation time (FIG. 7 (b)). […]
(§1) Spectra were acquired on a WITec Alpha 300 R+ confocal Raman microscope equipped with spectrometer using a 600 lpmm grating, a −70° C. cooled CCD camera (Andor iDus 401 BR-DD) and a 785 nm diode laser (Toptica, XTRA II). Raman spectra of the peptide powders were acquired using a Zeiss 100×/0.9 EC Epiplan NEOFLUAR; ∞/0 objective and a laser power of 100 mW, measured before the objective. […]
(§2) Starting from the 10×10 individual spectra, WITec Project Four® was used for removing cosmic rays. […] 11003 and 1829-860 were calculated by integrating the peaks at their respective positions and subtracting the background with a linear fit for the individual spectra. […]

trypsin [3] = molecular target: T1, trypsin; experiment: SERS-monitored trypsin hydrolysis of gold-nanodome bound peptides (with and without ovomucoid inhibitor); assay type: biochemical; conditions: for decrease of SERS intensity ratio I1003/I829-860: gold-nanodome bound peptide
Protocol: In a third experimental setup, three CALNNYGGGGVRGNF (SEQ ID NO:3) labelled nanodome chips were incubated in a buffer without trypsin, with trypsin and with trypsin plus an ovomucoid inhibitor for 45 minutes (FIG. 6). […] On the chip with trypsin only, the surface bound peptides are cleaved, resulting in a decrease of 11003/1829-860 by 40-48%. […] Two possible origins are considered for the remaining signal at 1003 cm^−1. […] More likely, the remaining signal originates from peptides that are not accessible to the protease due to steric hindrance. This can be a result of a too dense monolayer of peptides (refs 11, 23) or inaccessible parts of the nanodome geometry. Especially in the latter case, the inaccessible peptides are probably located in the nanodome gaps and will contribute disproportionally strong to the SERS signal.
Spectra were acquired on a WITec Alpha 300 R+ confocal Raman microscope equipped with spectrometer using a 600 lpmm grating, a −70° C. cooled CCD camera (Andor iDus 401 BR-DD) and a 785 nm diode laser (Toptica, XTRA II). Raman spectra of the peptide powders were acquired using a Zeiss 100×/0.9 EC Epiplan NEOFLUAR; ∞/0 objective and a laser power of 100 mW, measured before the objective. SERS spectra were acquired through a Zeiss 63×/1.0 W-Plan Apochromat ∞/0 objective with 2 mW laser power. For real-time monitoring of enzymatic activity, the chip was placed in a metal petri dish filled with 1 ml 50 mM ammonium bicarbonate buffer (pH 7.8) inside a stage-top incubator at 37° C. (Okolab). Because of signal degradation upon laser illumination, each trace is the median spectrum of a spatially distributed map of 10×10 pixels in a 20×20 μm area with an integration time of 1 s on each point. In the real-time assay, every next trace was mapped on a different location on the SERS platform. […]
as §2

trypsin [4] = molecular target: T1, trypsin; experiment: Trypsin hydrolysis of unbound peptide observed through SERS spectra of a non-separated mixture; assay type: biochemical; conditions: peptide 100 μg/ml, trypsin 2 μg/ml, 2 hours of incubation, no RP-HPLC separation
Excerpt: Apart from a thiol-gold interaction, N-terminal primary amines can also lead to a charge-based adsorption on metal surfaces (ref 39). This effect may be additive in the case of cysteine, but could lead to the adsorption of unwanted amino acids on the gold surface. In a second set of in-solution experiments, a similar trypsin was run—CALNNYGGGGVRGNF (SEQ ID NO:3) assay without separating the fractions by RP-HPLC (FIG. 5). One nanodome chip was labelled with a reference solution of the peptide (100 μg/ml), another with a solution of peptide (100 μg/ml) and trypsin (2 μg/ml) after 2 hours of incubation. […] Furthermore, the SERS and difference SERS-spectra shown in FIG. 5 confirm the findings of the RP-HPLC experiment in FIG. 4(a).
as §1, with “objective. SERS spectra were acquired through a Zeiss 63×/1.0 W-Plan Apochromat ∞/0 objective with 2 mW laser power.” for “objective.”

T1 sequence (P00761 9-231): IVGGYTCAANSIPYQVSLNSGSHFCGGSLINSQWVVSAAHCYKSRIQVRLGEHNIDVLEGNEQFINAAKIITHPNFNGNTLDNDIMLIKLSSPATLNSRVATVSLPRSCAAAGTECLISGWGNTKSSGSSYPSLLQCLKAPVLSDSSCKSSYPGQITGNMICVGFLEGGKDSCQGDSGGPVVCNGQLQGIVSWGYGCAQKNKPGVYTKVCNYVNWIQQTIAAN
Sequence of endoproteinase Glu-C (P0C1U8 69-336): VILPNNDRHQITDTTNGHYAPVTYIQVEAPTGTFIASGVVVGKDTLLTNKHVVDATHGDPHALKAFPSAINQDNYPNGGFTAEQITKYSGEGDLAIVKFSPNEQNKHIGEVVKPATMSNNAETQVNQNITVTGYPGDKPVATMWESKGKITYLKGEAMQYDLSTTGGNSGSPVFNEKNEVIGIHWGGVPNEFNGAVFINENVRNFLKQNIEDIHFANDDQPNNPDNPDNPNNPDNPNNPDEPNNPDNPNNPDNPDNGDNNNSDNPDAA

## CALNN(bzF)GGGGVRGNF (CALNN[Bpa]GGGGVRGNF) [trypsin substrate analogue, tyrosine replaced by benzoyl-phenylalanine]
Trypsin [1]
  change of 1003 cm^-1 phenylalanine SERS peak in cleaved fraction after trypsin cleavage: decrease

## CALNN(cnF)GGGGVRGNF (CALNN[Phe(4-CN)]GGGGVRGNF) [trypsin substrate analogue, tyrosine replaced by 4-cyano-phenylalanine]
Trypsin [1]
  change of 1003 cm^-1 phenylalanine SERS peak in cleaved fraction after trypsin cleavage: complete disappearance

## CALNNYGGGGNNESWH
Endoproteinase Glu-C; 4 hours of incubation, peptide 100 μg/ml, endoproteinase Glu-C 3.3 μg/ml
  conversion of substrate to products by endoproteinase Glu-C (RP-HPLC/mass spectrometry): almost full conversion
Endoproteinase Glu-C; cleaved peptide vs uncleaved dimer bound to nanodome chips
  change of 754 cm^-1 and 1356 cm^-1 (tryptophan) SERS peaks upon endoproteinase Glu-C cleavage: disappearance

## CALNNYGGGGVRGNF (trypsin substrate) [trypsin substrate peptide with Tyr and Phe SERS reporters]
Trypsin [2]; 8.6 nM trypsin concentration
  time course of digestion of gold-bound peptide in real-time monitoring: immediate digestion within the first two minutes
Trypsin [2]; trypsin concentrations ranging from 1 to 0.2 μg/ml, 37° C., spectrum every 2-3 minutes
  cleavage of accessible surface-bound substrate in real time (I1003/I829-860 versus time): most of the accessible substrate was cleaved within the time-span of the first measurement
Trypsin [3]; 45 minutes incubation
  decrease of SERS intensity ratio I1003/I829-860: 40-48%
Trypsin [3]; trypsin
  decrease of SERS intensity ratio I1003/I829-860: ≤ 53%
Trypsin [1]; 30 minutes incubation
  extent of substrate digestion by trypsin (RP-HPLC/MALDI-TOF): almost fully digested
Trypsin [1]; 90 minutes incubation
  extent of substrate digestion by trypsin (RP-HPLC/MALDI-TOF): fully cleaved
Trypsin [1]
  change of 1003 cm^-1 phenylalanine SERS peak in cleaved fraction after trypsin cleavage: full disappearance
Trypsin [4]
  extent of digestion by trypsin, from lack of 1003 cm^-1 phenylalanine SERS peak: fully digested

B1: ovomucoid inhibitor: Ovomucoid (Type II-0) Trypsin inhibitor from chicken egg white (Sigma, T9253) (protein, UniProt P01005 25-210, looked up)
Ovomucoid: AEVDCSRFPNATDKEGKDVLVCNKDLRPICGTDGVTYTNDCLLCAYSIEFGTNISKEHDGECKETVPMNCSSYANTTSEDGKVMVLCNRAFNPVCGTDGVTYDNECLLCAHKVEQGASVDKRHDGGCRKELAAVSVDCSEYPKPDCTAEDRPLCGSDNKTYGNKCNFCNAVVESNGTLTLSHFGKC
Trypsin [3]; trypsin plus ovomucoid inhibitor, 45 minutes, inhibitor 100 μg/ml, substrate CALNNYGGGGVRGNF on nanodome chip
  inhibition of tryptic cleavage of surface-bound peptide (SERS spectrum vs reference chip): full blockade of tryptic cleavage
